{"source": "paper PMC2955292", "about": "(Chemistry & biology, 2010)", "proteins": {"B1": {"name": "Escherichia coli ClpP (enzyme)", "chain": "not shown"}}, "molecular_target": "the molecule itself", "assay": "AUC", "note": "Where “and” joins values, the source holds several entries; their conditions need not be identical. Equal entries are not always repeated."}
{"protein": "B1", "values": [{"measurement": "stoichiometry N", "value": "14 and 7"}]}
